Experimental data taken from patent publication US20260242478A1 (published 2026).
Where no end group is shown, it is not given here.

Experiments:
PSMA Fab (006 PSMA Fab) [1] = biological target: T1, PSMA Fab (006 PSMA Fab) (biotinylated (site not given)); test: clonal phage ELISA; biotinylated PSMA Fab on neutravidin plate, wells pre-incubated with PSMA antigen as competitor; anti-M13 HRP detection;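 also: crude clonal phage supernatants added to antigen-treated wells without a wash, incubated briefly, then bound phage read out via horse radish–conjugated anti-M13 antibody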
T1 construct: also called Anti-PSMA Fab; anti-PSMA Fab

PSMA Fab (006 PSMA Fab) [2] = biological target: T1, PSMA Fab (006 PSMA Fab); test: clonal phage ELISA; biotinylated PSMA Fab on neutravidin plate, blocking buffer alone; anti-M13 HRP detection;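 also: crude clonal phage supernatants added without washing to wells pretreated with blocking buffer with or without PSMA antigen, short incubation, then washed before detecting bound phage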
Description: (§1) Clonal phage were harvested as crude supernatants and screened via standard ELISAs. […] Prior to the addition of clonal phage. wells were incubated with blocking buffer and PSMA antigen or blocking buffer alone. Without washing or aspirating, clonal phage supernatants were then added to the wells and incubated for a short time. Wells were then washed followed by detection of bound phage using a horse radish conjugated anti-M13 antibody.

PSMA Fab [3] = biological target: T2, PSMA Fab; test: clonal phage ELISA on biotinylated PSMA Fab captured on neutravidin plates, anti-M13-HRP detection; blocking buffer alone
T2 construct: Biotinylated and captured on neutravidin plates in the phage ELISA; also called Anti-PSMA Fab; 006 PSMA Fab
Description: as §1

PSMA Fab [4] = biological target: T3, PSMA Fab (biotinylated (site not given)); test: phage ELISA: clonal phage supernatant on biotinylated PSMA Fab captured on neutravidin plate, blocking buffer alone; anti-M13 HRP detection;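 also: crude clonal phage supernatants added to wells preincubated with blocking buffer, incubated briefly, bound phage detected with a horseradish-conjugated anti-M13 antibody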
T3 construct: Biotinylated PSMA Fab captured on neutravidin plates in the phage ELISA; also called Anti-PSMA Fab; 006 PSMA Fab

PSMA Fab [5] = biological target: T3, PSMA Fab; test: phage ELISA on captured biotinylated PSMA Fab, wells pre-incubated with PSMA antigen (competitor: PSMA); anti-M13 HRP detection
Description: as §1

PSMA Fab [6] = biological target: T4, PSMA Fab; test: phage binding ELISA; biotinylated PSMA Fab on neutravidin plate, clonal phage supernatant, anti-M13 HRP detection; column read as anti-PSMA Fab pre-incubated with PSMA antigen as competitor
T4 construct: also called Anti-PSMA Fab; 006 PSMA Fab
Description: as §1

PSMA Fab [7] = biological target: T4, PSMA Fab; test: phage binding ELISA; biotinylated PSMA Fab on neutravidin plate, clonal phage supernatant, anti-M13 HRP detection; column read as anti-PSMA Fab without PSMA antigen
Description: as §1

Row | Binder | Phage binding ELISA signal, Anti-PSMA Fab (PSMA Fab [3]) | phage binding ELISA signal (PSMA Fab [6]) | phage binding ELISA signal (PSMA Fab [7]) | also measured
1 | TDKLCRPPWMCELM (cysteine pairing not given here; also: displayed on phage pIII, linker not given here, Clonal phage of the Peptide-180 library, tested as crude phage supernatant; not shown: pIII filament protein of the bacteriophage) [Phage-2634] | – | – | – | Phage binding ELISA signal, Anti-PSMA Fab with PSMA antigen (PSMA Fab (006 PSMA Fab) [1]): 0.065; Phage binding ELISA signal, Anti-PSMA Fab (PSMA Fab (006 PSMA Fab) [2]): 0.966
2 | IVKWCTPHWMCSGW (cysteine pairing not given here; also: fused to phage pIII, linker and fusion site not given here, Clonal phage of the Peptide-180 library, tested as crude supernatant; not shown: pIII coat protein of the bacteriophage to which the peptide is fused) [Phage-2529] | 1.17 | – | – | –
3 | WSNWCIPPWMCAMN (peptide, not shown: large carriers, cysteine pairing not given here; also: displayed on phage as fusion to pIII, pIII and linker sequence not given here, Clonal phage of the Peptide-180 optimisation library, tested as crude supernatant) [Phage-2481] | – | – | – | Phage binding ELISA signal, Anti-PSMA Fab (PSMA Fab [4]): 1.23; Phage binding ELISA signal, Anti-PSMA Fab in presence of PSMA (PSMA Fab [5]): 0.0771
4 | VSPKCIPPWMCSYV (cysteine pairing not given here; also: fused to phage pIII, linker and fusion site not given here, Clonal phage of the Peptide-180 library, tested as crude supernatant; not shown: pIII coat protein of the bacteriophage to which the peptide is fused) [Phage-2536] | 1.16 | – | – | –
5 | LGHWCTPPWMCTES (cysteine pairing not given here; also: fused to phage pIII, linker and fusion site not given here, Clonal phage of the Peptide-180 library, tested as crude supernatant; not shown: pIII coat protein of the bacteriophage to which the peptide is fused) [Phage-2527] | 1.17 | – | – | –
6 | HFNWCTPSWMCDVL [Phage-2592] | – | 0.118 | 1.05 | –
7 | MFKWCTPSWMCERV [Phage-2596] | – | 0.176 | 1.05 | –
8 | MVKWCTPPWMCNFE [Phage-2595] | – | 0.121 | 1.05 | –
9 | LMNWCIPSWMCDVE (cysteine pairing not given here; also: fused to phage pIII, linker and fusion site not given here, Clonal phage of the Peptide-180 library, tested as crude supernatant; not shown: pIII coat protein of the bacteriophage to which the peptide is fused) [Phage-2539] | 1.15 | – | – | –
10 | SVTWCIPPWMCELS [Phage-2600] | – | 0.0673 | 1.04 | –
11 | PTKWCIPEWMCVES (cysteine pairing not given here; also: fused to phage pIII, linker and fusion site not given here, Clonal phage of the Peptide-180 library, tested as crude supernatant; not shown: pIII coat protein of the bacteriophage to which the peptide is fused) [Phage-2541] | 1.15 | – | – | –
12 | ETKLCKPMWMCALL (cysteine pairing not given here; also: displayed on phage as pIII fusion) [Phage-2602] | – | 0.126 | 1.03 | –
13 | VPKWCIPVWMCEVM (cysteine pairing not given here; also: fused to phage pIII, linker and fusion site not given here, Clonal phage of the Peptide-180 library, tested as crude supernatant; not shown: pIII coat protein of the bacteriophage to which the peptide is fused) [Phage-2534] | 1.16 | – | – | –
14 | GMKWCTPEWMCQIV [Phage-2603] | – | 0.28 | 1.03 | –
15 | TDKWCVPEWMCMEF [Phage-2591] | – | 0.0773 | 1.05 | –
16 | EMKWCTPEWMCIGL (cysteine pairing not given here; also: fused to phage pIII, linker and fusion site not given here, Clonal phage of the Peptide-180 library, tested as crude supernatant; not shown: pIII coat protein of the bacteriophage to which the peptide is fused) [Phage-2540] | 1.15 | – | – | –
17 | PVPLCRPPWMCQSV (cysteine pairing not given here; also: fused to phage pIII, linker and fusion site not given here, Clonal phage of the Peptide-180 library, tested as crude supernatant; not shown: pIII coat protein of the bacteriophage to which the peptide is fused) [Phage-2533] | 1.16 | – | – | –
18 | VTHWCIPEWMCVVE (cysteine pairing not given here; also: fused to phage pIII, linker and fusion site not given here, Clonal phage of the Peptide-180 library, tested as crude supernatant; not shown: pIII coat protein of the bacteriophage to which the peptide is fused) [Phage-2530] | 1.17 | – | – | –

Row | Binder | Phage binding ELISA signal, Anti-PSMA Fab (PSMA Fab [3]) | phage binding ELISA signal (PSMA Fab [6]) | phage binding ELISA signal (PSMA Fab [7]) | also measured
19 | LSKWCIPDWMCISS [Phage-2599] | – | 0.0618 | 1.04 | –
20 | DGIWCTPRWMCEGM [Phage-2593] | – | 0.0865 | 1.05 | –
21 | YEKWCIPRWMCEAN (cysteine pairing not given here; also: fused to phage pIII, linker and fusion site not given here, Clonal phage of the Peptide-180 library, tested as crude supernatant; not shown: pIII coat protein of the bacteriophage to which the peptide is fused) [Phage-2531] | 1.16 | – | – | –
22 | HPQLCIPSWMCNVW [Phage-2594] | – | 0.105 | 1.05 | –
23 | VLNWCTPPWMCLGI [Phage-2589] | – | 0.107 | 1.06 | –
24 | IEKWCMPSWMCEWN [Phage-2601] | – | 0.0609 | 1.03 | –
25 | MIGWCTPSWMCSGF [Phage-2588] | – | 0.0716 | 1.06 | –
26 | DWKWCTPAWMCSTE (cysteine pairing not given here; also: fused to phage pIII, linker and fusion site not given here, Clonal phage of the Peptide-180 library, tested as crude supernatant; not shown: pIII coat protein of the bacteriophage to which the peptide is fused) [Phage-2535] | 1.16 | – | – | –
27 | VHKWCTPAWMCEVH [Phage-2597] | – | 0.0662 | 1.04 | –
28 | EMKWCIPQWMCADS (cysteine pairing not given here; also: fused to phage pIII, linker and fusion site not given here, Clonal phage of the Peptide-180 library, tested as crude supernatant; not shown: pIII coat protein of the bacteriophage to which the peptide is fused) [Phage-2537] | 1.16 | – | – | –
29 | DMKWCTPAWMCQSS (cysteine pairing not given here; also: displayed on phage pIII, linker not given here, Clonal phage of the Peptide-180 library, tested as crude phage supernatant; not shown: pIII filament protein of the bacteriophage) [Phage-2635] | – | – | – | Phage binding ELISA signal, Anti-PSMA Fab with PSMA antigen (PSMA Fab (006 PSMA Fab) [1]): 0.0701; Phage binding ELISA signal, Anti-PSMA Fab (PSMA Fab (006 PSMA Fab) [2]): 0.966
30 | MPRWCTPAWMCEAI [Phage-2590] | – | 0.063 | 1.05 | –
31 | DLKWCFPDWMCQVG (cysteine pairing not given here; also: fused to phage pIII, linker and fusion site not given here, Clonal phage of the Peptide-180 library, tested as crude supernatant; not shown: pIII coat protein of the bacteriophage to which the peptide is fused) [Phage-2542] | 1.15 | – | – | –
32 | EHRWCIPVWMCEKS (cysteine pairing not given here; also: fused to phage pIII, linker and fusion site not given here, Clonal phage of the Peptide-180 library, tested as crude supernatant; not shown: pIII coat protein of the bacteriophage to which the peptide is fused) [Phage-2532] | 1.16 | – | – | –
33 | EPKWCVPPWMCAYD (cysteine pairing not given here; also: fused to phage pIII, linker and fusion site not given here, Clonal phage of the Peptide-180 library, tested as crude supernatant; not shown: pIII coat protein of the bacteriophage to which the peptide is fused) [Phage-2538] | 1.16 | – | – | –
34 | LVKWCVPDWMCQET [Phage-2598] | – | 0.0671 | 1.04 | –
35 | YEKWCTPAWMCDFV (cysteine pairing not given here; also: fused to phage pIII, linker and fusion site not given here, Clonal phage of the Peptide-180 library, tested as crude supernatant; not shown: pIII coat protein of the bacteriophage to which the peptide is fused) [Phage-2528] | 1.17 | – | – | –
